{"source": "patent US20240026407A1", "about": "“MODIFICATION OF SAPONINS” (GLAXOSMITHKLINE BIOLOGICALS SA, priority 2020, published 2024)", "molecules": {"B1": {"name": "169 (protein, listed as Bifiguratus adelaidae)", "chain": "MASSRVTELLANLTLEEKVYLLSGSDNWRTFPVPRLGIPAVKVTDGPIGARGDSFNTGQNAACFPAPIAMASTWDTDLLLKVGSALGEEAKSKAAQVLLAPTINMHRSPLNGRNFECYSEDPFLTGKMATAFVSGLQSQGVAAAVKHFACNDSEFERDSISSEITERPFREIYLRPFEMVVRDADPWCIMTSYNKINGVFASENPKLLKEILRNEWNWKGMVMSDWFGVKSTVPSVLNGNDLEMPGPPAWRGEKLLAAIKQGELKEEDLNESVQRVLSFVERVGKFEDPEERPETYLAKPEITELIRNVSADSIILVKNEQSLPLNKDALKSVAIIGPNAKTAVTMGGGSSKVQAPHEVTPYEGIAAALGEDVDIRHSVGAYTHKLIPQLDDRLQTPDGELGYIMDVYESKNFGETPTDSKVLNNTRVIIHDAGFKDVDFRSFSAKVRARYTAKHTGPHTFGIASVGLSKLYVDGKLVIDNWTSQVRGDIFFGFGSREEKAQYDMIEGQTYEILIDYMTGHELMAMLRFGLLEPLASDVVEQAVKVAEGTDVAVVVVGLNNEWETEGYDKTELELPGGQNELIEAVANVNKNTIVVVQCGSPVVMPWIDKVSGVIVAWYGGQETGHSIADVLFGKVNPSGRLTQTFPKRLEDNPAFDNYPGENGKVIYGEGLFIGYRYYQRRKVDVFLPFGFGLSYTTFDYGNIKLDNSELDPQAHITVSVDVTNTGSIAGKEVVQVYVHDNHPRLSRPLAELKGFSKVELAPGETRTVQITLDKHAVAFYDDKEAVWVAEAGEFELHIGSSSADIRGKVPFTVTKSLSWTF"}, "B2": {"name": "208 (protein, listed as Anaerolinea thermophila)", "chain": "MNVHNQDTIEQKISELLSQMTLSEKVSLLSGKDAWRTMPIPRLGIPSITMTDGPHGVRSSYPEAGRKAGPTTCFPTGVSMAATWNTALIEKVGMALAEETRAMDCDILLGPCVNIVRHPLAGRNFESYSEDPYLNGKMGVAWVKGLQSKKVGASLKHFAANNQEFERHRGSSELDERTLREIYLPHFEMVVKEAKPFTVMCAYNRINGVYASQNRHLLREILKEEWGFDGVVVSDWGANHTIFESVENGLDLEMPGPARYYGKLLEDAVHNWQIDEKVIDDAVRRILRILFRAGKFDDPATLPPGSVNTPEHQALALEVAEEAITLLKNEADLLPLDIEKIRTLAVIGPNAAEDRIGGGGSSYVDPPYRVSPLEALRARFGDKIQIEYEKGCDNYHQPPVLGADWLGVNGLKVDFFDNPALQGQPAGTISIPKAEMWMWANSLPASKITSPRFSLRASGSFTPLESGNFTFFLVNTSTCRVFINGNKVFENTSKPKEHRAESEVQFQTTLEEGKSYDLVIEYLKDNDEEFAFWKLACMRVFGPGEDNRIQKAAELAAKSDVALVFIGMPEGFESEGYDRPDMRLPGPQDELVRAVLKANPRTVVILNAGSPVEMPWAEDVPAILEAYYPGQEGGNAVAKILFGEINPSGKLTVTFPRRLEDTPAYINYPGDRKVYYGEGIFVGYRYYEKKKVSPLFPFGHGLSYTTFEYENLTLPSEVNIGESVKVQVTVKNTGKRAGKEVVQLYVGDPESSLVRPPKELKGFAKVELQPGESKTVSFELDERAFAFYDPYQSRWVVEPGEFQILVGSSSQDIRASAVLRMA"}, "B3": {"name": "5 (protein, listed as Actinobacteria bacterium)", "chain": "MSELVENLILRLTLEEKATLTSGTDMWNAHGIDRLGIPGLKVSDGPVGVRGERWVGTTSACTPCGTALGATWNMELIEQVGVVLGEEAKSKSVDIVLAPTVNLHRNPLAGRNFECFSEDPFLTGLAATAIINGIQSAGVGACVKHFVANDSEYQRHTISSQVSERVLRELYLLPFEMVIRDTDVVAVMSGYNRLNGTYCAEHDWLLNQILKQEWGFDGLVMSDWWGTMSSASAAGGLDLEMPGPAKYLGPQLAQMVADGTLDATALDEMARRILHVSERLGLLAHSSPATPSRAAERSEDLPTHQAILRSAAEQAVVLLTNRLIEGQTVLPLDVSSLRHVAVIGPSADTAAVLGGGSAAVNPHYAVSILQGLQEALPSHVKVTHEIGVHASHSAPPIDSRCLRSAVQPDKPGLDVEYFANREFAGTPACVEHAAQPRLVWMGSEAASGVATNNLSVRVSGTFIARSTGTHTFALVTGGTGGRVLLDGESILDNYTGQESGTAFFGLGSSEILAEVYLEQGEERGIIGEFTGYEGMDVAAFLIGHREPLAADGIERAAKAAAEAEVAIVVVGLDQDSETEGEDRKTISLPGEQDALLRAVIAANPRTVVLVNAGSVVDLAATEGAAAIAQTWYLGQETGNAVAAVLTGSVDPSGRLPTTFGKKVQDWSSHLNYPGEFGEVLYGEELFMGYRGFDQQQIEPAFCFGHGLSYTSFDWSGATLSTSSLSQTELLDGAQFSLSAEVTNTGDTSGYEVLQCYVQRDQSQSGRPEQELCGFVKVHLSPGQTATVNIPLNFRSCAVWDQPSRSWLVHPGEIKFRLSSSSRDTRSTAAFQVTT"}, "B4": {"name": "101 (protein, listed as Meira miltonrushii)", "chain": "MSAPIDPQALLAQLTLEEKIQLTAGADLWRTVAIERLKIPYIKLTDGPIGARGGGDFHDSTPSTLFPSPSCLGSTWDTKLAYEMGKQIALDGIEKQCHVILGPTINGQRDPRAGRFFESYSEDPTLMGFLASHWVQGVQSCGVGATMKHFVANEAEYDRRNNSSDVSIEALREVYLEPFRIIMADMQRKASAHDDPFKFQPACVMTAYNRVNGVSSSENDAMITDILRKEWGFDGLVMSDWFAMHANAFNATDLEMPGPTIFRTIEKTIDTIKKGDEEGKKMAKDLDRCVLKVLELVKKVHKLGYQKSVADEVEKSVPIEQVGPAIRKIGAEGAVLLKNDNDILPIIPKKDLKILCVGAPWIEAVQSGGGSANLTPQKVMQPLSTFKDALKNEKGGQDVTVNHHNGIGIHNFVKPLEQSIKLDFLTGRQPGKGEVVASTTGQKATLSTMLPKPKEVPWNDYWVRGSLDLEPVKKDCQLRFGLLGLGTITAYLTIDGDKSKQSIWNFDGETDLFESIVNPLRNWQENVITVKAGQKIQIEAHFVPRLVGKEHGDAKYGGFQIGMEEVDDEDALIAEAVQQAKEADLTVIMTAVGKDWESEGFDRPTIFLPRRQDDLVNQVTKACPGKTVILNLTGSVVEMPWRNDATGIVQCWYGGQEGAVSLSDILLGRGDAPASGRLAHVWPARIEDHPSGVDEAYFPGTHLPNDKEGPHTEYVEGRLVGYKYYNKNKNANQPAFHFGEGLGGYTTFATEGPVVKGSTKINKSSLPLSLTVKSTNKGKRSGKEVAQIYLRPHVPLSDAKDEPIQRLAGFAILRPAPGQSEEAEIQLYQETFSHWDEKSRSWQVKQGDYDLVLARSARYGEELGKATITIDQSWSWTGTGVN"}, "B5": {"name": "207 (protein, listed as Bifidobacterium dentium)", "chain": "MSESTYPEVNDLTLEEKASLTSGGDAWHLQGVEAKGIPGYMITDGPHGLRKSLASSTGETDLNDSVPATCFPPAAGLSSSWNPELIHQVGEAMAEECIQEKVAVILGPGVNIKRNPLGGRCFEYWSEDPYLAGHEAIGIVAGVQSKGIGTSLKHFAANNQETDRLRVSANISQRALREIYFPAFEHIVKEAQPWTIMCSYNRINGVHSAQNHWLLTDVLRDEWGFEGIVMSDWGADHDRVASLNAGLNLEMPPSYTDDQIVYAARDGRIQPEQLDRMAQGMIDLVNKTRAAMSVEGYRFDVDAHDEVAHQAAVESMVLLKNDDAILPVASDAKVAVIGEFARTPRYQGGGSSHITPTKMTSFLDTLAARGVDAKFAPGFTLDLEPADAAMAADAVEVAKGADVVLMFLGLPEAAESEGFDRETLDIPAKQVELLEAVAAENKNIVVVLSNGSVVSVAPWADNAKGILESWLLGQAGGPALADVIFGNVSPSGKLAQTVPMDINDDPSMINWPGEEGHVDYGEGVFVGYRYYDTYDKAVDYPFGYGLSYATFEVSDVKVAKTGANTASVSAVVKNTSDVDAAETVQVYVAPGKSAVARPIHELKGFRKVFLKAGESAEVSFDLDERAFAYWSEKFDDWHVESGEYAIEVGTSSRDIAGTGVVELDGDGKAEPLTEWSTFGEWSDDPVGSKIVASVYAEGEAGNLPKMPDNDMMRMFLRSMPINSMPMLMSEGGKKITAFMLDEYAKVTE"}, "B6": {"name": "247 (protein, listed as Arthrobotrys oligospora)", "chain": "MDATTLKEIEETLAQLTLEEKISLLAGKDFWRTVPLPEKQIPSIKVSDGPSGARGDTFSGGQKAAFFPSGILMGATFNPELAYETGELLSEEVRAKSASVLLAPTACCHRSPLGGRNFESYSEDPLLSGKMASGYIRGVQSRGIAATMKHFVANEQETWRLYVDETIDETTLREIYLKPFEIAMREGQPWAIMTAYNIINGVHCDSHPLTLKQVLRGEWNYEGLVMSDWFGCNSMVESLLAGLDLEMPGPARKRPIKEFVEAAEKDESVRKAIDDSARRILTLIAKVGKWKDMTPEAPEYSRNDPETGKLIRRAGGEGTVLLKNEGKTLPLQPGSLKKVAFIGPNAKATVAGGGGSANLEPNYLTQPYETFVTAIKEINGDIEVPWVQGCIIDRWVPNIDVEGGFCRVGGPDSEAGLFLEWFRGYEATGEPVATTVFKTSNAFLWDSRPTSISPSEEFSVRFSGQISVPEDGKYNISLSTITASKLYLNGELLIDNWDFKERGNLMMNVGSEEVVKTIELKKGEWYPILVHNSSIWPKDSPRDPPMEEIGALGIRLGVAPVYDNAVLIAEAADAVKDADAVVIVVGLNNEWESESYDRSDTKLPNNQDDLIEEIAKVNQNVIVVNQSGAPVDMPWAENSNVKAIVQAWYAGQEAGHVIADVLLGKQNPSGKLPLTFPIKVQDNPSYLYFPGRDQKVEYTEKLMVGYRYYDTENVQTRFPFGYGLSYSTFSIGEPSLSTAELTEGQTFTANVDVSNTSNVAGAEVVQLYVKRPASTSSIKRPVKELKGFKKVHLGTGETATANITVDDKSLGIWSTEAGKWVVEAGDYEVLIGTSSVQDELKPAGKITVKAAWSWI"}}}
{"assay": "Experiment 4-3: screening of glucosidases for deglycosylation with QS-18 in crude bark extract (1 in 2000 dilution) at pH 7 and 30 deg C", "format": "biochemical, Quillaja saponaria", "details": "CBE 1 in 2000 dilution, pH 7, 30 degC, 1 h; % conversion of QS-18 by LCMS/MS", "units": {"Expt 4-3 % conv": "%"}}
{"molecule": "B1", "Expt 4-3 % conv": 2.4}
{"molecule": "B2", "Expt 4-3 % conv": 26.0}
{"molecule": "B3", "Expt 4-3 % conv": 1.4}
{"molecule": "B4", "Expt 4-3 % conv": 1.8}
{"molecule": "B5", "Expt 4-3 % conv": 0.2}
{"molecule": "B6", "Expt 4-3 % conv": 2.7}
{"assay": "Experiment 4-1: screening of glucosidases for deglycosylation with purified QS-18 (0.04 mg/ml) at pH 7.5 and room temperature", "format": "biochemical, Quillaja saponaria", "details": "pH 7.5, room temperature, 20 h, clarified E. coli lysate, QS-18 2150 to QS-21 1988 by LCMS/MS", "procedure,_shortened": "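Deglycosylation measured by LC-MS/MS as % conversion after 20 h room-temperature incubation of QS-18 phenyl fraction (0.04 mg/ml final) with polymyxin B/lysozyme lysates, pH 7.5 phosphate, of E. coli BL21(DE3) expressing each enzyme; MeCN quench. Positives exceeded negative control by >3 S.D.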", "units": {"Expt 4-1 % conv": "%"}}
{"molecule": "B1", "Expt 4-1 % conv": 19.8}
{"molecule": "B2", "Expt 4-1 % conv": 100.0}
{"molecule": "B3", "Expt 4-1 % conv": 70.8}
{"molecule": "B4", "Expt 4-1 % conv": 28.2}
{"molecule": "B5", "Expt 4-1 % conv": 27.4}
{"molecule": "B6", "Expt 4-1 % conv": 18.0}
{"assay": "Experiment 4-4: screening of glucosidases for deglycosylation of QS-18 in crude bark extract (1 in 20 dilution) to QS-21", "format": "biochemical, Quillaja saponaria", "details": "CBE 1 in 20 dilution, pH 6, 25 degC, 18 hours; % conversion of Middle Peak by UV HPLC", "procedure,_shortened": "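Clarified glucosidase lysates were incubated with pH 6 crude bark extract (1 in 20) in potassium phosphate buffer pH 6 for 18 h at 25 °C with shaking, then quenched with MeCN. UV HPLC with MS/MS-supported peak identity; activity is % conversion of the extract's Middle Peak (QS-18 family) toward the QS-21 peak.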", "units": {"Expt 4-4 % conv": "%"}}
{"molecule": "B1", "Expt 4-4 % conv": "<3"}
{"molecule": "B2", "Expt 4-4 % conv": "<3"}
{"molecule": "B3", "Expt 4-4 % conv": "<3"}
{"molecule": "B4", "Expt 4-4 % conv": "<3"}
{"molecule": "B5", "Expt 4-4 % conv": "<3"}
{"molecule": "B6", "Expt 4-4 % conv": "<3"}
{"assay": "Experiment 4-2: screening of glucosidases for deglycosylation with purified QS-18 (1 mg/ml) at pH 6 and 30 deg C", "format": "biochemical, Quillaja saponaria", "details": "pH 6, 30 degC, 18 hrs, clarified lysate, LCMS/MS", "procedure,_shortened": "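Enzyme activity derived from LC-MS/MS analysis after MeCN quench. Substrate QS-18 (1 mg/ml final) was exposed overnight (18 h, 30 °C, pH 6 phosphate buffer) to clarified lysates containing candidate glucosidases.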", "units": {"Expt 4-2 % conv": "%"}}
{"molecule": "B1", "Expt 4-2 % conv": 2.1}
{"molecule": "B2", "Expt 4-2 % conv": 94.0}
{"molecule": "B3", "Expt 4-2 % conv": 16.6}
{"molecule": "B4", "Expt 4-2 % conv": 1.0}
{"molecule": "B5", "Expt 4-2 % conv": 4.4}
{"molecule": "B6", "Expt 4-2 % conv": 2.0}
